According to the DeepSol protein solubility set:

test: soluble on expression in E. coli; label from the status in PepcDB or PDB records

Soluble on expression in E. coli, not soluble:
MKRGDIAHGLRLSGFKSLFPFSLHWCHTASKSVNCTWHQHEDHLELQYASTVMRFDYVWLRDHCRSASCYNSKTHQRSLDTASVDLCIKPKTIRLDESTLFFTWPDGHVTRYDLDWLVKNSYEGQKQEVIQPRVLWNAKLYQDAQLPSVDFQGFLETKEGLKKFLQNFLLYGIAFVENVPPTQEHTEKLARRVSLIRETIYGRMWYFTSDFSRGDTAYTKLALDRHTDTTYFQEPCGIQVFHCLKHEGTGGRTLLVDGFYAAQQVLQRAPEEFDLLSQVPLKHEYIENVGQCHNHMIGVGPILNIYPWNKELYLIRYNNYDRAVINTVPYDVVRRWYAAHRTLTTELRRPENELWVKLKPGKVLFIDNWRVLHGRESFTGYRQLCGCYLTRDDVLNTARILGLHA
MGSDKIHHHHHHMKRPPKKPATDRSFVVALSRGLEVLRAFGPNDGLLGNQELAARTKLPKPTISRLTYTLTKLGYLTQVPRFEKYQLAPAAMSLGYAALANLGVRHLSQPYRDELMQQTGGAVAVGARDRISMIYVGQARSSLTVGVQLDVGSRIPIATTAMGRAYLCALQSEERAVLMKEMREYYGSRWPRIKEGIERSEEMVAKHGFAISVGEWQDDVHAAGVALTLNDGTGPYAFNCGAPAFRFTEERLINDIGPRLVAMVRKIEAALGGVAAPQPRKSDNKRTKGGKVARVVEGIR
MTPLPVTVIGGYLGAGKTTLVNHLLRHAAGRRLAVLVNEFGDLPIDADLIEAEEDGMISIAGGCICCSFGSDLIGALNDLAAMEPRPDHILVESSGVAIPGAIVSTMLLADGIRSDGIVVVVDGETVRQRAQDDYVGDTITRQLSDAEIVVVNKTDLLAHAVQTELMEWLAEAAPGAIAIPAERGRVAPGALLGVLPAPGTGQPAHHSDRLFDSLVLAPEGGQPIERLARDLATGPHGVIRAKGYLRDIEGALWLIQTVGRRWEVTPAQGPHQTGLVCIGFRDRLDRSGLAALAGATV
MGSDKIHHHHHHMKVNTALGILAGKSSQFILKKLGRGTTLPGKIALKFDKHILDSLAKDYEVVVITGTNGKTLTTALTVGILQEAFGEITTNTSGANMITGITATFLSAKKNKKGKKIAVLEIDEASLARVTDFIKPSLIVFTNIFRDQMDRYGEIYTTYQMILDGAAKAPQATILANGDSPLFNSTNVINPVKYYGFATEEHEPRLAHYNTEGVLCPHCHQIIQYKLNTYANLGSYICNNCGFCRPELDYKLTDLKEITNTSSTFAIDGQDYKINIGGLYNIYNALAAVSVAAFFGVTPEKIKAGFDKSKAVFGRQETFKLGDKDCTLVLIKNPVGATQAIEMMKLAPYDFSLSVLLNANYADGIDTSWIWDADFEQITQMDIPQVFAGGVRSSEIARRLRVTGYPENQITETPKLEDIMALIEQSSSQHAYILATYTAMLEFRDLLAQRQAVGKEMK
MPAKIPITDNHMHIDPRARGLEAVKEFKNSGGTHIILVTKPSWSLGIAVKKPEDYLAVFDETVEIASKIREIGVGAFPVLGVHPAEISKITEYMDLSEAVETMKKGLELAAGYVERGLAVGIKSGRPHYPVPSDVWEASNEIMEHAFSLGKEQDCAVQLHTESVQEPELKDIAERARKTGIKMYRVVKHYSPPLVKTCEELGIFPGVISVKGAIEKAIEEGTRFMMETDYIDDPDRPGAVLGPKTIPKRTIKLMETYGEEPFWTIHKENPEKVYDIEIEL
MGSDKIHHHHHHMQLLHTPAAISISFDDPNLISTAGLVPTMALAEDRLTVPTDKGANPGAKITTLIAGMVAGADSIDDIDALRHGGMHRLFDWIYAPSTLGSFLRAFTFGHVRQLDAVASRFLVGLATQAPALVPVDASTSDYVFIDVDDTIIKVHGHQKQGAGFGYSGIRGLNALLATVTTPESAPVVVAQRLRKGSCGSPRGAGRLIADAVATTRRLPGMEDEKILLRADSAFYGHPSISAAIKAGADVSVTVRMTPNVKKAIAQVPDDAWQTIKYTNAIFDEDTGRWISVAEVAEIPFTAFTSRKKTDHIPGLLVVRRIPELNNKDVDQPGLFDLHRFHAVFTTADPGILDTVAADKTHRQHAIIEQVNADVKASALAHMPSGVFTANSAWLVCAVMAFNLTRTAGVIAAGAMARATTATIRRKLVAVPARIARSARRLILHLPRNWRWETQWSRLCDHGRLPP
MAHHHHHHMSHIYDMLGINVEKLKTKKKQKEKISKKQLNFLKDNDNLFSLPTTSKIISLNNKNVSVWRLVKFRSKCRNDDLILTKWSKIGYKNDKKEFNEDKIEDDNTFEKFNKKINIIKYNDDLYYREIQPLNTGWTKEETDYLFNLCEKYDCHFIIVNDVYDIKYKRTIEEIKERFYTVTKKVMEDKFDQQIKLEEAKKIKNNNDILKLKEAKAKHPLIKFTYNMQADLERKNIIHKTYTVSKKDVMLEETTLENIKKFESKIKLELKKAADMKKLKKKFELTTEEIVPITKLPEEDKEAKNIYSARYYFQKLKIDISYFDKLDIYLKENNIEKPTIYTENICFLYGVLRTDVAILLNLRKKIEKLKQEREFWKGQMNNLEEEYLKKQQKT
MFLTAVRRSSNVLKTFKPLYDRVLVERVAAETKTKGGIMLPEKSQGKVLEATVVSAGAGLRNEKGELVALTVKPGDRVLLPEYGGTKVVVEDKEYSIFRESDLLGVFH
YEQKIRLENRSVAGKWALSQKGFDGKKLMRAYDSPEAAAAALKMQKLTEQYRIDSTPTVIVGGKYRVIFNNGFDGGVHTIKELVAKVREERKRQTPAVQK
AHHHHHHGSVKVTFLGHAAFYIEGSKKILIDPFLSGNPVASAKPDDFKSVDLILVTHAHGDHLGDVGTIAKRTGAKVVAMYDLANYIAEKYKGVETIGMNYGPTKVDEVEIVQVPAWHSSSDGKYSIGNACGYIVKLDGVTIYHAGDTYVFKDMELFAELYGPIDVALLPIGGHFTMGVREAAKAVELLKPRHVIPMHYNTWPPIAADPEEFKKLVGEKAKVVILKPGESLEL
MDPKFLVVEIDSKERALQLVQVMLENGFARFMLLDDLSRHPTLDRIQREEPRISRDELRETASSPVTFETRHSPYPVHEQKVLFPSFSQVSNSMVTSTGIRQEASSVGVGPIEDDDIVEEEEEEDIRLTSKPCVKRRYDHHAEEQEYRDQLMSLLSGEPEIVPIGVNSNDEPSGSNSDSAAKKAKSVGDYHECQLCGVRVKTPRSGRWNLQMHVIALHCVGRQYKCKQCDYLDYRKSTMRKHTVSQHGSDIPPHNITDNIMKAEWHAAMIKCFPEFAHRTGFLN
MSLDAHAQSYYRDCYRGAANMVRAMQKRANTLLSAGQTIADRQHKFIRSGRLRDKQPLTMTLIAQEAGLNKSTISRALSNCRIRLDSGIFPAEHFLARPLSDDTPDRTRDQVLQRLRLLIETENPRSPMSDQVLARQLGKARLSISRRTVAKYRQFLQIPGAYERKRNTEGHHHHHH
GQYDYIKVAVSLMGSAYYVDFAKELSKYALAQGLTFPYDVDERILALQKYDLTQNITKINNRPLLLWHGKKDDVVPFAYSEKLYQTLVEESLADNVEFIIDDNAKHKVSVEGMLQGVSFFEKFL
IPLFSDAEIKPNHATRTTQVGMPLAISVDDYSQLAFVLTQSGEIQYLSMDAPDKPAIYTQQLATNPVSFSQSAPGLGWYGLVDDQGLAHIFKPEFNATLRENTRPPEVVALSTDMNLTLTDAQDPVTQFVFSASTQTPTIVWQTRSGKVKARWQEKSALGVAPTTIDFSFSAGFDAPQQMLLTPDGETLYLRDGSELIVLTKAAQKFTVREVIDLTQGDKKHSVRTIDLLAGAYSLLVTHNDGRVSQWFDTLQNDKRTLTHIRDFKLASELKYLLPDSHRKGFYSFYTNGTLQSHYTTSEKLVLFKRAYKQAPAMAAMSNNERYLITWNDDSLKVAEVDNSYPEVSLSSLWQKVWYEGYPEPEFVWQSTSASDNFEAKFSLVPIAFGTIKAA
MAHHHHHHMCPYEERQELRISMGFAGRRPNLTFTSDTMDAHAYLVRHWALNAIAESAGKGMSVQRDSIPFLARSQHSIVNENKMTFLRPDGKIKYNIPKHWLLESDSSVNFLNASPGPVLPSEADNLLVCCTIYEERPEKCMRVYRVRTREDYIAVNQEILAAKCQLLEMNEVNGRNSMRISSRSTRASQQKERLGQTQRVLRTSMERKSINTAADSAGLPFSAFALSGLVSNAAFTIHKTDTSRQINIIHSFLRTEPTCKATIARSIVGNNVTLGPDVRITNSIILDNAEIGAGAIISNSVIGSSAMVNSGVRVVSCTVGPQCLVESNETDRVIRA
MINETKYMRQQITNLIQIIDTIKYNTLMTDWNIQTHIYKFNQIVTNELNKFKGFETSYIINENQVSYYEIITLLNKRPLRQVDYGNKIQYLNFYHTELSNALFAIKFAHLEHHHHHH

Soluble on expression in E. coli, soluble:
AGHMADGELNVDSLITRLLEVRGCRPGKIVQMTEAEVRGLCIKSREIFLSQPILLELEAPLKICGDIHGQYTDLLRLFEYGGFPPEANYLFLGDYVDRGKQSLETICLLLAYKIKYPENFFLLRGNHECASINRIYGFYDECKRRFNIKLWKTFTDCFNCLPIAAIVDEKIFCCHGGLSPDLQSMEQIRRIMRPTDVPDTGLLCDLLWSDPDKDVQGWGENDRGVSFTFGADVVSKFLNRHDLDLICRAHQVVEDGYEFFAKRQLVTLFSAPNYCGEFDNAGGMMSVDETLMCSFQILKPSEKKAKYQYGGLNSGRPVTPPRTANPPKKR
GLSDRYQRVKKLGSGAYGEVLLCKDKLTGAERAIKIIKKSSVTTTSNSGALLDEVAVLKQLDHPNIMKLYEFFEDKRNYYLVMEVYRGGELFDEIILRQKFSEVDAAVIMKQVLSGTTYLHKHNIVHRDLKPENLLLESKSRDALIKIVDFGLSAHFEVGGKMKERLGTAYYIAPEVLRKKYDEKCDVWSCGVILYILLCGYPPFGGQTDQEILKRVEKGKFSFDPPDWTQVSDEAKQLVKLMLTYEPSKRISAEEALNHPWIVKFCSQKHTDVGKHALTGALGNMKKFQSSQKLAQAAMLFMGSKLTTLEETKELTQIFRQLDNNGDGQLDRKELIEGYRKLMQWKGDTVSDLDSSQIEAEVDHILQSVDFDRNGYIEYSEFVTVCMDKQLLLSRERLLAAFQQFDSDGSGKITNEELGRLFGVTEVDDETWHQVLQECDKNNDGEVDFEEFVEMMQKICDVKVKH
MSLRMMNKRILKGTLTAIAALMSAHAFAGQEVTVYTAFETDLLAKYKSAFEKENPDIEIKWVRDSTGIMTAKLLAEKDNPRAEVVWGLAGSSMALLKDQGVLKPYTPKGANELRANLNDPQAQQAWYGNDAFFNAVCFNEAVAKQLNLPKPQSWEDLTNPVYKGHIAMPNPASSGTGYMQVSAWLQNMGEDKAWDYMQRLDQNIAHYTHSGSKPCVQAGMGEVAIGISMATRGAKLKTQGAPLDVIVPNGIGWESEAVGLVKESDAAKRVVDWSVSKAANELYIESYPIVGHQDVSKQVPNYPNVEKVMAKMDFTQMGVDRARVLQTWSEKFDAKSEPKEGHHHHHH
MKKLMITQEAGVATVLIKNPPVNILTIDLINELNAFILSLKDDRETKVVVFKSFHEAFFIAHLDLNVINGTSGGQAASIEFNHMIANIKAMKQLSIAVVDGVARGGGNEFVMACDLAYGTENSAFAQPELYINIPTGGQGAVQFARRLGKGKALQALLTGADFTAQQAETLNIITQFVLKAELDVFLAQLLSVIVGWEIRDIVMYKEIIAASIKDEAVGTELELRYFLERAREEKTQTIIAAFLKH
MSLAKRIVPCLDVHAGRVVKGVNFVNLRDAGDPVEAARAYDEAGADELVFLDISATHEERAILLDVVARVAERVFIPLTVGGGVRSLEDARKLLLSGADKVSVNSAAVRRPELIRELADHFGAQAVVLAIDARWRGDFPEVHVAGGRVPTGLHAVEWAVKGVELGAGEILLTSMDRDGTKEGYDLRLTRMVAEAVGVPVIASGGAGRMEHFLEAFQAGAEAALAASVFHFGEIPIPKLKRYLAEKGVHVRLD
